Results on three proteins are retold here after publication doi:10.1101/2021.02.01.429088 (bioRxiv, 2021).

Data set [1] concerns the molecule itself. As to the kind of experiment: SEC.
Data set [2] concerns the molecule itself. As to the kind of experiment: SEC. This is another data set of the same source.

Where two headings read alike, the source gives them in different places.

B1: T3D σ1 Tail-Body (25-291) (domain or fragment, mammalian orthoreovirus T3D (Dearing))
chain: GAMASKGLESRVSALEKTSQIHSDTILRITQGLDDANKRIIALEQSRDDLVASVSDAQLAISRLESSIGALQTVVNGLDSSVTQLGARVGQLETGLAELRVDHDNLVARVDTAERNIGSLTTELSTLTLRVTSIQADFESRISTLERTAVTSAGAPLSIRNNRMTMGLNDGLTLSGNNLAIRLPGNTGLNIQNGGLQFRFNTDQFQIVNNNLTLKTTVFDSINSRIGATEQSYVASAVTPLRLNSSTKVLDMLIDSSTLEINSSGQLTVRS
Turning to B1, the stoichiometry N (in general, a count of units in the complex or per binding partner) in “SEC [1]” amounted to 3.

B2: T3D σ1 Head (293-455), wild type (domain or fragment, mammalian orthoreovirus T3D (Dearing))
chain: GAMASPNLRYPIADVSGGIGMSPNYRFRQSMWIGIVSYSGSGLNWRVQVNSDIFIVDDYIHICLPAFDGFSIADGGDLSLNFVTGLLPPLLTGDTEPAFHNDVVTYGAQTVAIGLSSGGAPQYMSKNLWVEQWQDGVLRLRVEGGGSITHSNSKWPAMTVSYPRSFT
On to B2, for which, in the data set “SEC [1]”, the “stoichiometry N” value turned out to be 3.

B3: T3D σ1 Body-Head (170-455), wild type (domain or fragment, mammalian orthoreovirus T3D (Dearing))
chain: GAMAVTSAGAPLSIRNNRMTMGLNDGLTLSGNNLAIRLPGNTGLNIQNGGLQFRFNTDQFQIVNNNLTLKTTVFDSINSRIGATEQSYVASAVTPLRLNSSTKVLDMLIDSSTLEINSSGQLTVRSTSPNLRYPIADVSGGIGMSPNYRFRQSMWIGIVSYSGSGLNWRVQVNSDIFIVDDYIHICLPAFDGFSIADGGDLSLNFVTGLLPPLLTGDTEPAFHNDVVTYGAQTVAIGLSSGGAPQYMSKNLWVEQWQDGVLRLRVEGGGSITHSNSKWPAMTVSYPRSFT
As to B3, the “stoichiometry N” value in “SEC [2]” stood at 3.
